Assay results as given in US20240325557A1 (INNATE PHARMA, published 2024).

Key:
[1] = biological target: T1, huNectin4-C1C2-V5 (C1C2 construct, lacking the Ig-like V domain) (human, UniProt Q96NY8 148-510); test: flow cytometry on Nectin4-C1C2-V5 sorted cells
T1 construct: Expressed on CHO cells; also called Hu-Nectin4 IgC1C2-V5; Nectin4-C1C2-V5 sorted cells
T1 sequence: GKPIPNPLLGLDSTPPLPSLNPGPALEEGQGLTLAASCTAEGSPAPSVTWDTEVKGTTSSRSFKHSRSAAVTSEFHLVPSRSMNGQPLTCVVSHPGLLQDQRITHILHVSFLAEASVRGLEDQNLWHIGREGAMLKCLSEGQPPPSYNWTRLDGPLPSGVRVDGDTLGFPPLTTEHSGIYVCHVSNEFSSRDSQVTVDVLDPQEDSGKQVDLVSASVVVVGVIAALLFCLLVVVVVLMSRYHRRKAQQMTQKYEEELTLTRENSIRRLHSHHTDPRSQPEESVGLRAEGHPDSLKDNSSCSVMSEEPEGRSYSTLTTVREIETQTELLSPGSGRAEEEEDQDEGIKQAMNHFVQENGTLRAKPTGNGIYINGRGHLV

human PVR on CHO cells = biological target: T2, human PVR on CHO cells (human, UniProt P15151 28-417); test: flow cytometry on CHO cells expressing human PVR
T2 construct: also called PVR (Nectin-5)
T2 sequence: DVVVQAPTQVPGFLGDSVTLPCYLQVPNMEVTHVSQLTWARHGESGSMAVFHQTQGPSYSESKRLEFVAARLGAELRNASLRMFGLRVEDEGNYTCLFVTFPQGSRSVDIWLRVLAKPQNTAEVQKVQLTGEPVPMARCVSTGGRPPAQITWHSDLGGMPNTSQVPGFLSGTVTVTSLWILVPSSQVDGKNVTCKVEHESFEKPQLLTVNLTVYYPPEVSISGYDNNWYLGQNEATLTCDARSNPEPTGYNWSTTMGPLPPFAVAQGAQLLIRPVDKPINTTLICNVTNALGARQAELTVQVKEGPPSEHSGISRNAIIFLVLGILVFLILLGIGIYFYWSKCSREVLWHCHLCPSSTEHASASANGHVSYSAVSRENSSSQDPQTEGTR
Protocol: (§1) Anti-Nectin-4 antibodies were tested by flow cytometry for binding to different CHO cell lines made to express respectively the human Nectin 1, Nectin 2, Nectin 3 and PVR proteins. The expression of each cell lines was controlled and validated with known respectively the anti-human Nectin1, anti-human Nectin2, anti-human Nectin3 and anti-human PVR antibodies. The mature amino acid sequence of the proteins expressed by the cells were as follows:
(§2) Nectin 1, Nectin 2, Nectin 3 and PVR proteins as in Example 12. […] Epitope mapping was carried out by assessing competition for binding to Nectin-4 by SPR as in Example 14.

[2] = biological target: T3, wild-type human Nectin-4 on the CHO huNectin4 Cl.3C8 cell line (human, UniProt Q96NY8 32-510); test: flow cytometry on wild-type human Nectin-4 cell line
T3 construct: also called whole Nectin-4 protein; huNectin4 CI.3C8
T3 sequence: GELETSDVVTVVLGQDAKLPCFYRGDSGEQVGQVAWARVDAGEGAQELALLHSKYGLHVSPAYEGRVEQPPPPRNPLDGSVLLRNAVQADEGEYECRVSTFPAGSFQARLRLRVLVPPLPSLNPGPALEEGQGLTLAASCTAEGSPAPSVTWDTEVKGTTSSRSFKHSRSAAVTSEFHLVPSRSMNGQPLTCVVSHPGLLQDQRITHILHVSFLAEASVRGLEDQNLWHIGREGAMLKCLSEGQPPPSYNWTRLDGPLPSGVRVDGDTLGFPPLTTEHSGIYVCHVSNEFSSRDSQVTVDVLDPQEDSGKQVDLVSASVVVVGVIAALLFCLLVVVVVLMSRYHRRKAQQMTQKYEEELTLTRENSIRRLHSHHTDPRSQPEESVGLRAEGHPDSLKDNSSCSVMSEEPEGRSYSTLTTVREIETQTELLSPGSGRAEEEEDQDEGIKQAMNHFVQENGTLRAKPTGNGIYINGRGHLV

[3] = biological target: T4, human Nectin 1 on CHO cells (human, UniProt Q15223 31-517); test: flow cytometry on CHO cells expressing human Nectin 1
T4 sequence: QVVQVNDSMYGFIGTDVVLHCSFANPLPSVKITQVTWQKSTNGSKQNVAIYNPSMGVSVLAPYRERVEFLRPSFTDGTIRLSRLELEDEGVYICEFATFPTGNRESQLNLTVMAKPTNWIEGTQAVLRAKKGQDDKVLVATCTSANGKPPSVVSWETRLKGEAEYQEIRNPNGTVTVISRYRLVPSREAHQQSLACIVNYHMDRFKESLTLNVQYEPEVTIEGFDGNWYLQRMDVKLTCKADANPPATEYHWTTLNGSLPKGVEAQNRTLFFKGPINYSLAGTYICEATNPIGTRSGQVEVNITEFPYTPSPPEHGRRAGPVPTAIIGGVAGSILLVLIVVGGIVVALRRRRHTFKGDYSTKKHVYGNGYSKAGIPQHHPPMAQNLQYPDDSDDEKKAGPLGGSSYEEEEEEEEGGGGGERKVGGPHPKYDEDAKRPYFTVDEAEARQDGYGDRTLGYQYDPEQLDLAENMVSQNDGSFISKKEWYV
Protocol: as §1, §2

[4] = biological target: T5, human Nectin 2 on CHO cells (human, UniProt Q92692 32-538); test: flow cytometry on CHO cells expressing human Nectin 2
T5 sequence: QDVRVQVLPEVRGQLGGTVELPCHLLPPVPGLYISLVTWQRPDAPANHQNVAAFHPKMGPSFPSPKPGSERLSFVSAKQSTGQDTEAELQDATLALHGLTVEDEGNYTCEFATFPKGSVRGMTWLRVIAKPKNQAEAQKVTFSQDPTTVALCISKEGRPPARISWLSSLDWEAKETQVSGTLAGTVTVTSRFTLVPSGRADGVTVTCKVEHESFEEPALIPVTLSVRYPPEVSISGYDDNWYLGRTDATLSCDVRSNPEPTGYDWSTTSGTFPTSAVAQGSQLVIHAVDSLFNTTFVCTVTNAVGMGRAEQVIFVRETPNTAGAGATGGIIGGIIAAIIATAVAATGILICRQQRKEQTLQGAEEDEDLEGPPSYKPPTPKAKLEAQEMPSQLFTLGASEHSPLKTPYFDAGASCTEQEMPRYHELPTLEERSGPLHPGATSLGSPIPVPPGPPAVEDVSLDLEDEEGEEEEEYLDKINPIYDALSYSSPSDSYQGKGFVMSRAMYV
Protocol: as §1, §2

binding result [1]: binds
binding result (human PVR on CHO cells): no binding
binding result [2]: binds
binding result [3]: no binding
binding result [4]: no binding
B1: antibody 6A7 (antibody, human IgG1, V domains shown)
VH: QVQLKESGAELVKPGASVKLSCKASGYTFTSYWMHWVKQRPGHGLEWVGEIDPSDSYTNYNQKFKGKATLTIDKSSSTVYMQLSSLTSEDSAVYYCARSGNYDAMDYWGQGTSVTVSA
VL: DIVMTQAAFSSAVTLGTSASISCRSSKSLLHSNGITYLYWYLQKPGQSPHFLIYQMSNLASGVPDRFTSSGSGTDFTLRISRVEAEDVGVYYCAQNLELPWTFGGGTKLEIK
notes: also called CHG1-M-4N4-6A7
